In US20160137696A1 (Bristol-Myers Squibb, published 2016):
Starred links: 1 amine or outer side, 2 acyl side, 3 side chain; linkers in the order of their positions; H or OH if unused. Positions of bridges follow the written chain, without caps; N, C: chain ends. Non-standard residues stand in square brackets, D forms with d. Groups on a side chain read outwards from the residue. Primed or numbered codes have the meaning given here. No end group written: not given here. *: point of attachment. Pra′ = propargylglycine (built in as LPH), clicked to a 1-substituted triazol-4-yl-alanine, O=C([C@H](Cc1cn([*:3])nn1)N[*:1])[*:2]; PEG11′ = PEG11 spacer (eleven ethylene glycol units, 3,6,...,33-undecaoxa) between the triazole and gamma-Glu-C18 diacid; X1 = (S)‑3‑carboxy‑3‑(15-carboxypentadecanoylamino)propyl, O=C(O)CCCCCCCCCCCCCCC(=O)N[C@@H](CC*)C(=O)O; Pra″ = its azide, alkyne or alkene has reacted where a group follows in round brackets; Pra(3) = propargylglycine, clicked to an azide to give a triazolyl-alanine; triazole = 1,2,3-triazole formed by click of the Pra alkyne with the azide; Trp(1-CH2CO) = O=C([C@H](Cc1cn(CC(=O)[*:3])c2ccccc12)N[*:1])[*:2]; Phe(3,4,5-F3) = N[C@@H](Cc1cc(F)c(F)c(F)c1)C(=O)O; C18 diacid = O=C(O)CCCCCCCCCCCCCCCCC(=O)*; γGlu = O=C(O)[C@H](CCC(=O)[*:2])N[*:1]; Aha = [N-]=[N+]=NCC[C@H](N)C(=O)O; Hyp = O=C(O)[C@@H]1C[C@@H](O)CN1; NMeF = CN[C@@H](Cc1ccccc1)C(=O)O; F3Phe = trifluoro-phenylalanine; NMeE = CN[C@@H](CCC(=O)O)C(=O)O; NMeNle = CCCC[C@H](NC)C(=O)O; Bzt = benzothienylalanine; NMeA = CN[C@@H](C)C(=O)O; Orn = NCCC[C@H](N)C(=O)O; Pra = C#CC[C@H](N)C(=O)O; Dap = NC[C@H](N)C(=O)O; Sar = CNCC(=O)O

B1: INT-1300Y (peptide)
peptide: {CH2CO}-Y[NMeA]DPHK[Hyp]WK[Trp(1-CH2CO)][NMeNle][NMeNle]ECG[Pra]-OH
modifications: thioether N-14
SMILES: C#CC[C@H](NC(=O)CNC(=O)[C@@H]1CSCC(=O)N[C@@H](Cc2ccc(O)cc2)C(=O)N(C)[C@@H](C)C(=O)N[C@@H](CC(=O)O)C(=O)N2CCC[C@H]2C(=O)N[C@@H](Cc2c[nH]cn2)C(=O)N[C@@H](CCCCN)C(=O)N2C[C@H](O)C[C@H]2C(=O)N[C@@H](Cc2c[nH]c3ccccc23)C(=O)N[C@@H](CCCCN)C(=O)N[C@@H](Cc2cn(CC(=O)O)c3ccccc23)C(=O)N(C)[C@@H](CCCC)C(=O)N(C)[C@@H](CCCC)C(=O)N[C@@H](CCC(=O)O)C(=O)N1)C(=O)O
notes: also called Intermediate 1300Y
B2: INT-1400K (peptide)
peptide: {CH2CO}-[F3Phe][NMeF][NMeNle][dP]DV[NMeF][Orn][dP]WYLCG[Pra]
modifications: thioether N-13; not fully specified (C-terminus); printed as ClAc-F3Phe-mPhe-mNle-dPro-Asp-Val-mPhe-Orn-dPro-Trp-Tyr-Leu-Cys-Gly-[(S)-propargylglycine]
notes: also called Intermediate 1400K
B3: INT-1400A (peptide)
peptide: {CH2CO}-Y[NMeA]DPHK[Hyp]WKW[NMeNle][NMeNle]ECG[Pra]G
modifications: thioether N-14; not fully specified (C-terminus); printed as ClAc-Tyr-mAla-Asp-Pro-His-Lys-Hyp-Trp-Lys-Trp-mNle-mNle-Glu-Cys-Gly-[(S)-propargylglycine]-Gly
notes: also called Intermediate 1400A
B4: INT-1400E (peptide)
peptide: {CH2CO}-Y[NMeA]DPHK[Hyp]WK[Trp(1-CH2CO)][NMeNle][NMeNle]ECG[Pra]D
modifications: thioether N-14; not fully specified (C-terminus); printed as ClAc-Tyr-mAla-Asp-Pro-His-Lys-Hyp-Trp-Lys-“Trp”-mNle-mNle-Glu-Cys-Gly-[(S)-propargylglycine]-Asp
notes: also called Intermediate 1400E
B5: INT-1400B (peptide)
peptide: {CH2CO}-Y[NMeA]DPHK[Hyp]WKW[NMeNle][NMeNle]ECG[Pra]D
modifications: thioether N-14; not fully specified (C-terminus); printed as ClAc-Tyr-mAla-Asp-Pro-His-Lys-Hyp-Trp-Lys-Trp-mNle-mNle-Glu-Cys-Gly-[(S)-propargylglycine]-Asp
notes: also called Intermediate 1400B
B6: INT-1400C (peptide)
peptide: {CH2CO}-Y[NMeA]DPHQ[Hyp]WSW[NMeNle][NMeNle]ECG[Pra]G
modifications: thioether N-14; not fully specified (C-terminus); printed as ClAc-Tyr-mAla-Asp-Pro-His-Gln-Hyp-Trp-Ser-Trp-mNle-mNle-Glu-Cys-Gly-[(S)-propargylglycine]-Gly
notes: also called Intermediate 1400C
B7: INT-1400G (peptide)
peptide: {CH2CO}-Y[NMeA]NP[Dap]L[Hyp]WSW[NMeNle][NMeNle]RCG[Pra]
modifications: thioether N-14; not fully specified (C-terminus); printed as ClAc-Tyr-mAla-Asn-Pro-Dap-Leu-Hyp-Trp-Ser-Trp-mNle-mNle-Arg-Cys-Gly-[(S)-propargylglycine]
notes: also called Intermediate 1400G
B8: INT-1400D (peptide)
peptide: {CH2CO}-Y[NMeA]DPHK[Hyp]WK[Trp(1-CH2CO)][NMeNle][NMeNle]ECG[Pra]G
modifications: thioether N-14; not fully specified (C-terminus); printed as ClAc-Tyr-mAla-Asp-Pro-His-Lys-Hyp-Trp-Lys-“Trp”-mNle-mNle-Glu-Cys-Gly-[(S)-propargylglycine]-Gly
B9: Example 3619 (peptide)
peptide: {CH2CO}-F[NMeF][NMeNle][Sar]DV[NMeF]Y[NMeE]WYLCGGGK-NH2
modifications: thioether N-13
SMILES: CCCC[C@H]1C(=O)N(C)CC(=O)N[C@@H](CC(=O)O)C(=O)N[C@@H](C(C)C)C(=O)N(C)[C@@H](Cc2ccccc2)C(=O)N[C@@H](Cc2ccc(O)cc2)C(=O)N(C)[C@@H](CCC(=O)O)C(=O)N[C@@H](Cc2c[nH]c3ccccc23)C(=O)N[C@@H](Cc2ccc(O)cc2)C(=O)N[C@@H](CC(C)C)C(=O)N[C@H](C(=O)NCC(=O)NCC(=O)NCC(=O)N[C@@H](CCCCN)C(N)=O)CSCC(=O)N[C@@H](Cc2ccccc2)C(=O)N(C)[C@@H](Cc2ccccc2)C(=O)N1C
notes: order read from the list of couplings, which runs from C- to N-terminus
B10: Example 3214 (peptide)
peptide: {CH2CO}-[Phe(3,4,5-F3)][NMeF][NMeNle]PDV[NMeF]Y[NMeE]WYLCGGGK-NH2
modifications: thioether N-13; not fully specified (residue 4); printed as ClAc-Phe(3,4,5-tri-F)-[N-Me]Phe-[N-Me]Nle-cis-(D)-Pro(4-OH)-Asp-Val-[N-Me]Phe-Tyr-[N-Me]Glu-Trp-Tyr-Leu-Cys-Gly-Gly-Gly-Lys
notes: as for B9
B11: INT-1400F (peptide)
peptide: {CH2CO}-Y[NMeA]DPHK[Hyp]WKW[NMeNle][NMeNle]ECG[Pra]
modifications: thioether N-14; not fully specified (C-terminus); printed as ClAc-Tyr-mAla-Asp-Pro-His-Lys-Hyp-Trp-Lys-Trp-mNle-mNle-Glu-Cys-Gly-[(S)-propargylglycine]
notes: also called Intermediate 1400F
B12: INT-1400H (peptide)
peptide: {CH2CO}-Y[NMeA]DPHQ[Hyp]WSW[NMeNle][NMeNle]ECG[Pra]
modifications: thioether N-14; not fully specified (C-terminus); printed as ClAc-Tyr-mAla-Asp-Pro-His-Gln-Hyp-Trp-Ser-Trp-mNle-mNle-Glu-Cys-Gly-[(S)-propargylglycine]
notes: also called Intermediate 1400H

Molecular target: T1, Recombinant Human PD-L1-TVMV-His (human, UniProt Q9NZQ7 19-239)
T1 construct: expressed in HEK293T cells; also called PD-L1-His; hPD-L1(19-239)-TVMV-His
Experiment: HTRF vs PD-1-Ig; C = IC50 0.0003-0.0099 µM
Procedure: Homogenous Time-Resolved Fluorescence (HTRF) Assays of Binding of Soluble PD-1 to Soluble PD-L1. Soluble PD-1 and soluble PD-L1 refers to proteins with carboxyl-end truncations that remove the transmembrane-spanning regions and are fused to heterologous sequences, specifically the Fc portion of the human immunoglobuling G sequence (Ig) or the hexahistidine epitope tag (His). All binding studies were performed in an HTRF assay buffer consisting of dPBS supplemented with 0.1% (w/v) bovine serum albumin and 0.05% (v/v) Tween-20. For the PD-1-Ig/PD-L1-His binding assay, inhibitors were pre-incubated with PD-L1-His (10 nM final) for 15 m in 4 μl of assay buffer, followed by addition of PD-1-Ig (20 nM final) in 1 μl of assay buffer and further incubation for 15 m. PD-L1 fusion proteins from either human, cynomologous macaques, mouse, or other species were used. HTRF detection was achieved using europium crypate-labeled anti-Ig monoclonal antibody (1 nM final) and allophycocyanin (APC) labeled anti-His monoclonal antibody (20 nM final). Antibodies were diluted in HTRF detection buffer and 5 μl was dispensed on top of binding reaction. The reaction was allowed to equilibrate for 30 minutes and signal (665 nm/620 nm ratio) was obtained using an EnVision fluorometer. Additional binding assays were established between PD-I-Ig/PD-L2-His (20 and 5 nM, respectively), CD80-His/PD-L1-Ig (100 and 10 nM, respectively) and CD80-His/CTLA4-Ig (10 and 5 nM, respectively). Binding/competition studies between biotinylated Compound No. 71 and human PD-L1-His were performed as follows. Macrocyclic peptide inhibitors were pre-incubated with PD-L1-His (10 nM final) for 60 minutes in 4 μl of assay buffer followed by addition of biotinylated Compound No. 71 (0.5 nM final) in 1 μl of assay buffer. Binding was allowed to equilibrate for 30 minutes followed by addition of europium crypated labeled Streptavidin (2.5 pM final) and APC-labeled anti-His (20 nM final) in 5 μl of HTRF buffer. The reaction was allowed to equilibrate for 30 m and signal (665 nm/620 nm ratio) was obtained using an EnVision fluorometer.

T1 sequence (Q9NZQ7 other isoform, or with tags, fused parts or gaps limits assumed): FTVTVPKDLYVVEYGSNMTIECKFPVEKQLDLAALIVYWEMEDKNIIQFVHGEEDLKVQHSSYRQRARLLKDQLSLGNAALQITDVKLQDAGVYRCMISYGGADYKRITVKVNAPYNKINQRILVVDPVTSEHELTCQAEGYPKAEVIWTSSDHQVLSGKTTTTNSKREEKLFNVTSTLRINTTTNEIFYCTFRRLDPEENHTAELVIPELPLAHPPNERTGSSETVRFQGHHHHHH

IC50, 0.3 to 9.9 nM:
B1
B2
{CH2CO}-Y[NMeA]DPHK[Hyp]WK[Trp(1-CH2CO)][NMeNle][NMeNle]ECG[Pra″]([triazole-PEG11′-γGlu-C18 diacid]) (thioether N-14) [Example 14092]
{CH2CO}-Y[NMeA]NP[Dap]L[Hyp]WS[Bzt][NMeNle][NMeNle]RCGG[Aha] (thioether N-14) [INT-1300C]
{CH2CO}-Y[NMeA]DPHK[Hyp]WKW[NMeNle][NMeNle]ECG[Pra(3)]G (thioether N-14; not fully specified (residue 16, C-terminus)) [Example 14064]
B3
B4
B5
B6
{CH2CO}-Y[NMeA]NP[Dap]L[Hyp]WSW[NMeNle][NMeNle]RCG[Pra′]([triazole-X1]) (thioether N-14) [Example 14066]
B7
B8
B9
B10
B11
B12
